Laboratory results reported in patent US12571800B2, “Means and methods for treating angiogenesis-related diseases” (Heidelberg Biotech GmbH, priority 2011, dated 2026).

What was measured:
solid tumors = details: cited from earlier work
[1] = test system: human umbilical vein endothelial cells (HUVECs); details: in vitro; cited from earlier work
rat aortic rings = details: in vitro; cited from earlier work
[2] = test system: chicken chorioallantoic membrane; details: CAM assay; cited from earlier work
fibronectin [3] = target: T1, fibronectin (Homo sapiens, UniProt P02751); assay: Elisa, binding to fibronectin; details: proteins coated at 10 μg/ml; fibronectin as ligand at the same concentration
Description: Coating of proteins were done in PBS at concentration of 10 μg/ml. Fibronectin served as a ligand at the same concentration. All buffers contained 2% BSA, 0.1% Tween-20.
Three protein constructs human Fc (control), dimeric human (h)Fc-Endostatin and hFc-VEGF were employed. […] Artificial endostatin dimer was generated by introducing a single mutation in amino acid position 7 of endostatin (changing glutamine to cysteine) in the recombinant Fc-endostatin. Upon digestion of this mutant protein by enterokinase, endostatin dimer is produced, linked by a disulfide bond (Kuo et al., loc. cit.).

fibronectin [4] = target: T1, fibronectin; assay: Biacore (SPR) equilibrium binding constants to fibronectin; details: fibronectin 0.78 nM-100 nM over immobilized protein; values only in FIG. 1C
Description: Fibronectin samples were prepared by serial dilution into 0.01 M Hepes, pH 7.4, 0.15 M NaCl, 0.05% Surfactant containing 1 mg/ml BSA in the range 0.78 nM-100 nM and flowed over control and derivatized surfaces for three minutes at a flow-rate of 60 μl/min. Dissociation phases were monitored for 5 minutes. Zero concentration blank buffer cycles were included as negative control samples. Sensor surfaces were regenerated using a 1 minute injection of 1 M ethanolamine, pH 8.5 following each interaction analysis cycle. Non-specific binding effects to sensor surface CM4 were not observed. Calculated ka, kd and KD are shown. Different curves correspond to different concentrations of fibronectin.
1.3 Surface Plasmon Resonance (SPR) binding assays. This analysis provides for a unique method for measuring equilibrium constants between two binding partners. It is able to evaluate the kinetics of an interaction by recording the rates of complex formation (ka) and dissociation (kd) followed by employing a software which determines the values of these two parameters. Equilibrium constant (KD) is obtained by calculating the ration of kd/ka Human VEGF (R&D), endostatin, endostatin dimer and human NC-1 (hNC-1) were diluted to 50 μg/ml in 10 mM Sodium Acetate, pH 5.5 and immobilized onto series S sensor chip(s) CM4 via a standard N-ethyl-N′-(dimethyl-aminopropyl)carbodiimide/N-hydroxysuccinimide (EDC/NHS) amine coupling procedures. Control surfaces were prepared similarly without protein derivatization and utilized as a reference surface for compound binding experiments.
Binding measurements were performed using a Biacore™ (GE Healthcare, Uppsala, Sweden) instrument which employs surface plasmon resonance to detect and monitor molecular interactions.
Data analysis was carried out using Biacore T100 evaluation software v1.1.1. Data were prepared by subtraction of reference surface data and blank buffer sample data, a procedure commonly referred to as ‘double referencing’ and fitted to a 1:1 langmuir binding model.
In order to measure equilibrium binding constants for the above proteins, a Biacore system was employed. […] Fc-endostatin imposes a dimeric structure on the two molecules of endostatin at the C-terminus of Fc dimer.

HUVECs [5] = assay: Immunofluorescence, endothelial cell surface binding; type: cell-based, human
Description: HUVECs were incubated with Fc-endostatin and detected with Alexa 488 IgG or human NC-1 (hNC-1) trimer and detected by anti-His tag monoclonal antibody.
1.5 Immunocytochemistry. HUVECs were plated and grown on cover slips. […] The slips were incubated in the blocking buffer (2% BSA PBS) for 30 min. For hFc-endostatin or hFc groups, the slides were incubated with Alexa 488 antihuman IgG for imaging. For hNC-1 or IgG groups, the slides were incubated with mouse anti-His-tag monoclonal antibody, then probed by Alexa 488 anti-mouse IgG. Anti-fibronectin antibody (R&D) was used for secondary staining for all slides and probed by Alexa 594 anti-goat IgG and imaged by confocal-microscopy. DAPI counterstaining of nuclei is shown in blue.
2.3 Binding of oligomeric hFc-endostatin and hNC-1 to HUVECs. Immunoflourescence technique was employed to detect endothelial cell surface binding of oligomeric endostatin and NC-1.

HUVECs [6] = assay: Endothelial cell migration assay (transwell, VEGF-induced); type: cell-based, human
Description: HUVECs were plated into 24-well inserts of transwell plate in duplication. The lower chamber was filled with serum free medium containing 100 ng/ml […] VEGF (rhVEGF) plus different concentrations of hNC-1. After incubation for 16 h at 37° C., the cells were fixed and stained. […] Endostatin monomer, dimer and NC-1 were used for comparison (c).
1.7 Endothelial cell migration assay. HUVECs were washed by serum free EBM medium twice, re-suspended at 5×10^4 cells/well in 0.6 ml of medium, were plated into 24-well inserts (Coring, 8 μm pore size) in duplicates. The lower chamber was filled with 0.6 ml of serum free EBM medium containing 100 ng/ml […] (rh)VEGF (R&D) After incubation for 16 h at 37° C., the cells were fixed by methanol and stained with eosin and hemotoxlin. Cells on the upper side of the transwell membrane were removed by cotton swab. Cells migrating to the lower side of membrane were counted.
2.4 hNC-1 inhibits endothelial cells migration. Endothelial cell migration is an important step in new blood vessel formation and tumor angiogenesis. To evaluate the effect of hNC-1 on endothelial cell migration, rhVEGF has been used to induce HUVECs migration in a transwell assay. The migration of cells has been monitored and quantified Cells migrating across the membrane were stained with blue-purple stain (FIG. 3B(a)) and counted.

[7] = test system: human melanoma cancer cells (A2058); assay: A2058 human melanoma tumors in nude mice; type: in vivo
Description: 4-6 tumor-bearing nude mice in each group were subcutaneously (s.c.) treated with hNC-1 (100 μg/mouse once a day), clinical-grade endostatin (100 and 500 μg/mouse once a day) or PBS. Treatment was stopped prior to the development of necrosis. Sites of injection were away from tumors. Tumor sizes and the ratio of treated/control (T/C) is shown.
1.4 Animal and tumor models. All animal procedures were carried out in compliance with Children's Hospital Boston guidelines Protocols were approved by the Institutional Animal Care and Use Committee. Eight-week-old male (24-27 g) nude/nude mice (Massachusetts General Hospital, Boston, MA) were used. Mice were acclimated, caged in groups of five in a barrier care facility, and fed animal chow and water ad libitum. Animals were euthanized by CO2 inhalation. Human melanoma cell line A2058 was used for animal studies. A suspension of 2×10^6 tumor cells in 0.1 ml of PBS was injected subcutaneously (s.c.) into the dorsa of mice at the proximal midline. Mice were weighed and tumors were monitored twice a week in two diameters with digital calipers. Tumor volumes were determined using a^2×b×0.52 (where a is the shortest and b is the longest diameter). Tumors were allowed to grow to ˜100 mm^3 and mice were randomized. Treatment was by bolus s.c. injections. After experiments were completed, tumors and organs were excised and fixed in either 4% paraformaldehyde or were snap frozen. Four to six mice were treated with each group.
2.6 hNC-1 suppresses tumor growth in vivo. In order to compare anti-tumor activities of NC-1 and endostatin, nude mice bearing human melanoma cell line A2058 were employed. Two doses of clinical grade endostatin differing by 5-fold in concentration of protein (low and high doses) were used. […] It cannot be ruled out the possibility that injected NC-1 becomes degraded upon entering the circulation.

[8] = Stability in serum or cell culture media; type: in vitro ADME; details: longer periods of time, even at 4° C.
Source text: The invention also relates to a method for producing the protein oligomer or peptide oligomer or fusion protein of the invention, comprising (a) culturing a host cell comprising a nucleic acid encoding the protein oligomer or peptide oligomer or fusion protein of the invention, preferably under serum-free conditions, (b) obtaining from the host cell of step (a) the protein oligomer or peptide oligomer or fusion protein, and, optionally, (c) storing the protein oligomer or peptide oligomer or fusion protein, preferably under serum-free conditions. […] Therefore, it is advantageous to produce and keep the protein oligomer or peptide oligomer of the invention under serum-free conditions.
The earliest condition media employed for endostatin isolation was continuously kept at 4° C. for a long period of time (at least a month) prior to final purification step. Presence of fetal calf serum in the media can cause degradation of NC-1. Confirmation of this hypothesis was established by another group in the inventor's laboratory a year later, employing the same mouse tumor cell line (Wen et al., loc. cit.). […] Consequently, the earlier observation of an endostatin size protein being the only product following HPLC purification, strongly supports the inventor's hypothesis that NC-1 was completely digested to an endostatin size molecule after prolonged incubation at 4° C. […]

T1 sequence (P02751 32-2477): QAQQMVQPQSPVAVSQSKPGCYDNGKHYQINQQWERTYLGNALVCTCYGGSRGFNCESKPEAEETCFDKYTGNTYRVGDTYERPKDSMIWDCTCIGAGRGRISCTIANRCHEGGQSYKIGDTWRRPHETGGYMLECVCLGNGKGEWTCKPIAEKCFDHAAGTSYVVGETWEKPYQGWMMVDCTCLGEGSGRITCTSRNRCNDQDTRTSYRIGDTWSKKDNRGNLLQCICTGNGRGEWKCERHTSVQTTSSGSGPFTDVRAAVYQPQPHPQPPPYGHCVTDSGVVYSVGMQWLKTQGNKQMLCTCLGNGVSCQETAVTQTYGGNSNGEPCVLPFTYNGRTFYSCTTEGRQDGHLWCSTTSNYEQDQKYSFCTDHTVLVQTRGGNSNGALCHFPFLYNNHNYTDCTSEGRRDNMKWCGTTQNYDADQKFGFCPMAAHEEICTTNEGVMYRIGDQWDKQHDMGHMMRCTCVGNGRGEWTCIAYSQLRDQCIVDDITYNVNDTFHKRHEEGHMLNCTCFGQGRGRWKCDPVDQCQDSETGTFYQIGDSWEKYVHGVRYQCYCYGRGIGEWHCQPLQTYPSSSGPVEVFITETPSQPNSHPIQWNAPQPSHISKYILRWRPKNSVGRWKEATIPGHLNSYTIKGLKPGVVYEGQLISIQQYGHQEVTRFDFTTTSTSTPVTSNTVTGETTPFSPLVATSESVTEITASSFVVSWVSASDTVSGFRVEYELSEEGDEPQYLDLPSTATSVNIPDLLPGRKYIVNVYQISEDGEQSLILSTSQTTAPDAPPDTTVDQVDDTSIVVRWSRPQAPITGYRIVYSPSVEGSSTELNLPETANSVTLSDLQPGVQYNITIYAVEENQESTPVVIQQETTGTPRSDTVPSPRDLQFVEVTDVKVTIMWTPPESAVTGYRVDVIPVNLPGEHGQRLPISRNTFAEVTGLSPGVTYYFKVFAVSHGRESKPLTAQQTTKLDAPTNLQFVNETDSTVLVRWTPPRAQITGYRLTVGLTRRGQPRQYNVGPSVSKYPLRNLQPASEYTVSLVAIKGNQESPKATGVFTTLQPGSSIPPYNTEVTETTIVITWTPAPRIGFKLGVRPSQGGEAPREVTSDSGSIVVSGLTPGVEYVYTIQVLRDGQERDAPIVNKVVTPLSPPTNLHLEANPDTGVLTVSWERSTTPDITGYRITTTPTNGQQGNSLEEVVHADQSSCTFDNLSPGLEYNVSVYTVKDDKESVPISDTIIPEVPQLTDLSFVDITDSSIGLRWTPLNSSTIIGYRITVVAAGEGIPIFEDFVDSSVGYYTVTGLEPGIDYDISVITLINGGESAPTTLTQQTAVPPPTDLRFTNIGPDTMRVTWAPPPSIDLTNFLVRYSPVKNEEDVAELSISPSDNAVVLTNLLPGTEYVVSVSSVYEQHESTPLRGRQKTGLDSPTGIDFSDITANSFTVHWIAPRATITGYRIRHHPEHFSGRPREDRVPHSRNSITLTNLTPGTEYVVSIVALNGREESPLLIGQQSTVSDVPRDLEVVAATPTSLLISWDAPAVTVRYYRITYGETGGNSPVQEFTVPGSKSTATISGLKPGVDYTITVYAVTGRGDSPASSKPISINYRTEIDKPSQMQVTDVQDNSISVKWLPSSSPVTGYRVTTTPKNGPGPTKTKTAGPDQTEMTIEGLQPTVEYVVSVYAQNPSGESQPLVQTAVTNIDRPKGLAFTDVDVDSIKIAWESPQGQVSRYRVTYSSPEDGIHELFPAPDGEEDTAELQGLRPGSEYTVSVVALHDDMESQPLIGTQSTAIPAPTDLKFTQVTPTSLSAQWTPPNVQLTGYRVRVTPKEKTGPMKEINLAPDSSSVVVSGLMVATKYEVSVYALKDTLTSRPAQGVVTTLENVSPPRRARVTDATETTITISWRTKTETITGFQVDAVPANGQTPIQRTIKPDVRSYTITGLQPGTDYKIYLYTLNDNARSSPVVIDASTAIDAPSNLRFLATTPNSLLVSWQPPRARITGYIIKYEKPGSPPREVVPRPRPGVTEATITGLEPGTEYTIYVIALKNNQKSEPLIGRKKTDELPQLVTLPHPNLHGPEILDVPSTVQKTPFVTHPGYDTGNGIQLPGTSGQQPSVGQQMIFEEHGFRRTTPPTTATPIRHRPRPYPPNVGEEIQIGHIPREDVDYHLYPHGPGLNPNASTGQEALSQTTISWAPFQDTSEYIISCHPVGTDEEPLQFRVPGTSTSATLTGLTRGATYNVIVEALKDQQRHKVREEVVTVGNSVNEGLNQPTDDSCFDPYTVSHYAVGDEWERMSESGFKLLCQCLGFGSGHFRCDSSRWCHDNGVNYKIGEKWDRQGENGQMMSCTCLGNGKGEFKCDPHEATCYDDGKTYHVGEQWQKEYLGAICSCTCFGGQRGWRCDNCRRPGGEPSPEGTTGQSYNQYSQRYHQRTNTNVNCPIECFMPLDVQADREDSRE

B1: Endostar: recombinant human endostatin from Escherichia coli with an additional nine-amino acid sequence forming a his-tag (protein, UniProt P39060 1572-1754, looked up)
Endostatin: HSHRDFQPVLHLVALNSPLSGGMRGIRGADFQCFQQARAVGLAGTFRAFLSSRLQDLYSIVRRADRAAVPIVNLKDELLFPSWEALFSGSEGPLKPGARIFSFDGKDVLRHPTWPQKSVWHGSDPNGRRLTESYCETWRTEAPSATGQASSLLGGRLLGQSAASCHHAYIVLCIENSFMTASK
modifications: Endostatin nine-residue his-tag
Which results are given for B1?
Median time to tumor progression (solid tumors; 7.5 mg/m^2/day i.v. more than 7 days, with chemotherapy): 3.0 months; toxicity combined with chemotherapy (solid tumors; human, in vivo): tolerable; treatment related death (solid tumors; human, in vivo): No treatment related death; patients remaining stable (solid tumors; of 42 patients): twenty-one; patients with progressive disease (solid tumors; of 42 patients): nineteen; Median overall survival (solid tumors; with chemotherapy): 30.0 months; complete response (solid tumors; with chemotherapy): No complete response; one year survival rate (solid tumors; with chemotherapy): 81.0%; patients with partial response (solid tumors; with chemotherapy): Two of 42; VEGF-stimulated proliferation, migration, and tube formation of HUVECs [1]: suppressed; microvessel sprouting from rat aortic rings (rat aortic rings): blocked microvessel sprouting; formation of new capillaries from pre-existing vessels [2]: inhibit the formation of new capillaries

B2: hNC-1: naturally occurring trimeric NC-1 domain of human collagen 18: association domain, hinge region and endostatin domain (protein)
chain: SGVRLWATRQAMLGQVHEVPEGWLIFVAEQEELYVRVQNGFRKVQLEARTPLPRGTDNEVAALQPPVVQLHDSNPYPRREHPHPTARPWRADDILASPPRLPEPQPYPGAPHHSSYVHLRPARPTSPPAHSHRDFQPVLHLVALNSPLSGGMRGIRGADFQCFQQARAVGLAGTFRAFLSSRLQDLYSIVRRADRAAVPIVNLKDELLFPSWEALFSGSEGPLKPGARIFSFDGKDVLRHPTWPQKSVWHGSDPNGRRLTESYCETWRTEAPSATGQASSLLGGRLLGQSAASCHHAYIVLCIENSFMTASK
modifications: left off: small tags and cut ends
notes: naturally occurring trimeric NC-1 domain of human collagen 18: association domain, hinge region and endostatin domain
Which “binding to fibronectin (Elisa)” value (fibronectin [3]) does the source give for B2 here?
The value was “bound fibronectin”.

And the “equilibrium binding constant to fibronectin (Biacore)” value (fibronectin [4])?
The value was “High affinity constants”.

What about the “binding to HUVECs” value (HUVECs [5]; cells cultured only for 24 hours) of the same molecule?
Its value is “poor binding”.

And the “binding to HUVECs” value (HUVECs [5]; incubation time prolonged to 72 hours)?
Its value is “significant binding”.

And the “anti-migratory potency among endostatin monomer, dimer and NC-1” value (HUVECs [6])?
Its value is “most potent anti-migratory agent”.

What about the “VEGF-induced endothelial cell migration” value (HUVECs [6]; 100 ng/ml rhVEGF, 16 h) of the same molecule?
Its value is “inhibited VEGF-induced endothelial cell migration”.

And the endothelial cell migration (HUVECs [6]; 100 and 200 ng/ml of hNC-1)?
Its endothelial cell migration is “less migration”.

And the “dose effect on endothelial cell migration” value (HUVECs [6]; different concentrations of hNC-1)?
The value was “U-shaped curve”.

And the “inhibition of tumor growth” value ([7]; end of experiment, s.c. once a day, hNC-1 100 μg/mouse, endostatin 100 and 500 μg/mouse)?
Its value is 67%.

What about the “anti-tumor activity compared with endostatin” value ([7]; low dose of NC-1 vs 5-fold higher dose of endostatin) of the same molecule?
The value was “anti-tumor activity similar to high dose of endostatin”.

What about the “stability in serum or cell culture media” value [8] of the same molecule?
Its value is “susceptible to degradation”.
